Results: US20160017037A1 (GlaxoSmithKline, published 2016)
Residue numbers refer to the chain shown, from its start. One block for each binder: values may come before it.

How the values were obtained:
[1] = molecular target: T1, recombinant soluble human FcγRI (human, UniProt P12314 16-288, limits assumed); assay: SPR ProteOn XPR36, His-tagged receptor captured on anti-poly-histidine IgG, antibody analyte 8-2048 nM, equilibrium model, 25 C
T1 construct: also called CD64
Description: (§1) A goat anti-poly-histidine IgG was immobilised on a GLM biosensor chip by primary amine coupling. This surface was used as a capture surface for the poly-histidine tagged human Fc gamma receptors. […] The goat anti-poly-histidine IgG surface was regenerated with 100 mM phosphoric acid between interactions. The run was carried out on the ProteOn XPR36 Protein Array Interaction System at 25° C. and using HBS-EP as running buffer. Data was analysed for each receptor separately, setting a global R-max and using the Equilibrium Model inherent to the ProteOn's analysis software. Control molecules were run at the beginning and the end of the set of samples to be tested to ensure comparability of results. Data was compared from two experiments and hybrid control antibodies used as controls between experiments.

[2] = molecular target: T2, recombinant soluble human FcγRIIa R131 (human, UniProt P12318 36-218, limits assumed); assay: as above
T2 sequence (looked up): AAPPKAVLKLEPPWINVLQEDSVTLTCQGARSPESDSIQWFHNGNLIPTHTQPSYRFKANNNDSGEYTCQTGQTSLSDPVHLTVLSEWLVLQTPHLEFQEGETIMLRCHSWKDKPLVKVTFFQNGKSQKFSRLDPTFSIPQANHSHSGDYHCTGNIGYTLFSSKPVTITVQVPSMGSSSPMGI
Description: as §1

[3] = molecular target: T3, recombinant soluble human FcγRIIa H131 (human, UniProt P12318 36-218, limits assumed); assay: as above
T3 sequence (looked up): T2 sequence (looked up) with R132H
Description: as §1

[4] = molecular target: T4, recombinant soluble human FcγRIIIa V158 (human, UniProt P08637 17-208); assay: as above
T4 construct: also called FcγRIIIa valine V158; CD16
T4 sequence (P08637 17-208 F176V limits assumed): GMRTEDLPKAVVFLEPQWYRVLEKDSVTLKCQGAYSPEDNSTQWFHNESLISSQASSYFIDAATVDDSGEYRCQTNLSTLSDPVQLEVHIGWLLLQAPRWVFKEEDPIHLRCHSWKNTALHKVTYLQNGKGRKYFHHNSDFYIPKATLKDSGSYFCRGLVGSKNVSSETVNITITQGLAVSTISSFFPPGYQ
Description: as §1

[5] = molecular target: T5, recombinant soluble human FcγRIIIa F158 (human, UniProt P08637 17-208); assay: as above
T5 construct: also called FcγRIIIa phenylalanine F158; CD16
T5 sequence (P08637 17-208 limits assumed): as the sequence (P08637 17-208 F176V limits assumed) above, with V160F counted along it
Description: as §1

[6] = molecular target: T6, Human LAG-3 on cells (human LAG-3 expressing EL4 cells; activated human CD3+ T cells) (human, UniProt P18627 23-525); assay: flow cytometry (MFI), Alexa647-conjugated antibody titrated on human LAG-3 expressing EL4 cells; direct binding curve, half-maximal value labelled IC50 in the table under the graph; unit taken from the concentration axis
T6 construct: whole, on cells; also called LAG-3 positive T cells
T6 sequence (looked up): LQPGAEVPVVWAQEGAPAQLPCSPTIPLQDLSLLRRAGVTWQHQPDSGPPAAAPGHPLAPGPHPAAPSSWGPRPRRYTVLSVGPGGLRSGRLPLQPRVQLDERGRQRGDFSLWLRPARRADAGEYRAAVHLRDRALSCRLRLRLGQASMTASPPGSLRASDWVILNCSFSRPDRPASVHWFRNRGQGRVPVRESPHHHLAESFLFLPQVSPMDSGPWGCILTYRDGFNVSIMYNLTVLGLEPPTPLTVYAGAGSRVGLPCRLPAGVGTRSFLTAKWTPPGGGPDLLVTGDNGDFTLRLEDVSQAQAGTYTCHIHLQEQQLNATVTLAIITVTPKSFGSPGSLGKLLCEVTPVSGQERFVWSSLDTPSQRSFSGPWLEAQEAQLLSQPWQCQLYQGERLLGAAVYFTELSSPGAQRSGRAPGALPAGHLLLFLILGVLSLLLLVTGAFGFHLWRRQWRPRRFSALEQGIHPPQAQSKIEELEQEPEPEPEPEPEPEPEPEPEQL
Description: Human LAG-3 expressing EL4 cells were incubated with either IMP731, H5L7 or H5L7BW Alexa647-conjugated antibodies at varying concentrations of up to 50 μg/ml for 30 minutes at room temperature. Cells were washed with FACS buffer (PBS+0.5% BSA) to remove unbound antibody.
EL4 cells and CD3⁺ T cells were analysed by FACS using a Beckman Coulter FC 500 flow cytometer. FACS raw data were analysed using CXP Analysis software (Beckman Coulter). The data was initially plotted on a forward-scatter versus side-scatter plot and the population of cells of interest were gated. This gated population was then plotted as a histogram displaying fluorescence intensity and the mean fluorescence intensity (MFI) calculated. MFI values were then plotted in GraphPad Prism 5 software to generate dose response curves.

T1 sequence (P12314 16-288 limits assumed): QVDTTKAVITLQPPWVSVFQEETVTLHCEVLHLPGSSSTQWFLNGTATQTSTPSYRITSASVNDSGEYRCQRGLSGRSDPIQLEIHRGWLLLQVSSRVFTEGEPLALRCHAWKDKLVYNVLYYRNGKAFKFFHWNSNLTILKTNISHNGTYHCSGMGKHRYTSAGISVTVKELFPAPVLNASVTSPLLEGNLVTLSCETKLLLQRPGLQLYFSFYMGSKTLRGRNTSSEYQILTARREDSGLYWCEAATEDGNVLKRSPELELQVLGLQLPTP

Kd [1]: 39 nM
Kd [2]: 2620 nM
Kd [3]: 1280 nM
Kd [4]: 406 nM
Kd [5]: 1750 nM
IC50 [6]: 0.013 µg/mL
B1: IMP731 (antibody, human IgG1, kappa)
heavy: not shown
light: DIVMTQSPSSLAVSVGQKVTMSCKSSQSLLNGSNQKNYLAWYQQKPGQSPKLLVYFASTRDSGVPDRFIGSGSGTDFTLTISSVQAEDLADYFCLQHFGTPPTFGGGTKLEIKRTVAAPSVFIFPPSDEQLKSGTASVVCLLNNFYPREAKVQWKVDNALQSGNSQESVTEQDSKDSTYSLSSTLTLSKADYEKHKVYACEVTHQGLSSPVTKSFNRGEC
notes: Chimeric (murine variable domains, human IgG1/kappa constant regions); also called A9H12; chimeric antibody IMP731

Kd [1]: 26.4 nM
Kd [2]: 1490 nM
Kd [3]: 1430 nM
Kd [4]: 21.8 nM
Kd [5]: 81.1 nM
IC50 [6]: 0.0169 µg/mL
B2: H5L7BW (antibody, human IgG1, kappa)
heavy: not shown
light: DIQMTQSPSSLSASVGDRVTITCKSSQSLLNPSNQKNYLAWYQQKPGKAPKLLVYFASTRDSGVPSRFSGSGSGTDFTLTISSLQPEDFATYYCLQHFGTPPTFGQGTKLEIKRTVAAPSVFIFPPSDEQLKSGTASVVCLLNNFYPREAKVQWKVDNALQSGNSQESVTEQDSKDSTYSLSSTLTLSKADYEKHKVYACEVTHQGLSSPVTKSFNRGEC
modifications: afucosylated: no fucose on the core carbohydrate structure attached to Asn297
notes: Same plasmids as H5L7, expressed in the BioWa POTELLIGENT (FUT8 knock-out CHO) cell line; also called afucosylated antibody H5L7BW; afucosylated H5L7

Kd [1]: 26.3 nM
Kd [2]: 792 nM
Kd [3]: 638 nM
Kd [4]: 236 nM
Kd [5]: 752 nM
IC50 [6]: 0.0142 µg/mL
B3: H5L7 (antibody, human IgG1, kappa)
heavy: not shown
light: B2 light
notes: Humanised IgG1/kappa of A9H12 (IMP731); also called fucosylated H5L7; non-ADCC enhanced variant H5L7
